Target: T1, DENR (in DENR-MCTS1 complex, coexpressed);MCTS1 (in DENR-MCTS1 complex, coexpressed) (human;human) (UniProt O43583+Q9ULC4)
T1 sequence 1: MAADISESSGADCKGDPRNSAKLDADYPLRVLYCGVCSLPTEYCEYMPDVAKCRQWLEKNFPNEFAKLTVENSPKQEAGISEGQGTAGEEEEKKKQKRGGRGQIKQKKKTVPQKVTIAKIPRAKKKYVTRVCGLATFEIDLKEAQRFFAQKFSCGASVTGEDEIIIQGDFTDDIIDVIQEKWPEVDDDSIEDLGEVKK
T1 sequence 2: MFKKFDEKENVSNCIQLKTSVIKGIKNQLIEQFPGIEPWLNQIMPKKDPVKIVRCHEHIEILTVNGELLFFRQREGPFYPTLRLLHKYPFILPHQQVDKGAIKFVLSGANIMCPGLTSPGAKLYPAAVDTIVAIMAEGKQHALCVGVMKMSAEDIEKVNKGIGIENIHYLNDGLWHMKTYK
Assay: EMSA
Details: Scatchard, 5 replicates; general value, per-tRNA Kd only in S3E' Fig; 50 mM Tris pH 7.5, 150 mM NaCl, 15 mM imidazole (protein eluted in 300 mM imidazole, 2 mM DTT added), protein 0.25-16 uM, RNA 1 uM (3 uM yeast tRNA mix), 30 min

## tRNA, species not specified in text
  Kd: 1.5 µM

Source: paper PMC6013234
